Legend:
recombinant human TNFα [1] = biological target: T1, recombinant human TNFα (human, UniProt P01375 77-233); experiment: cell-based or functional assay
recombinant human TNFα [2] = biological target: T1, recombinant human TNFα; experiment: ELISA on recombinant human TNFα
recombinant human TNFα [3] = biological target: T1, recombinant human TNFα; experiment: ELISA on recombinant human TNFα (FIG. 4A)

T1 sequence (P01375 77-233 limits assumed): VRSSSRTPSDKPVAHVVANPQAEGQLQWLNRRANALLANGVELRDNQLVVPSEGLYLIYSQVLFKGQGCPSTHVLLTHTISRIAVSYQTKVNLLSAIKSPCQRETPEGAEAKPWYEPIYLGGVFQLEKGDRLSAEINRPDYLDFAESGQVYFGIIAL

B1: TB-A H_F68L (scFv)
scFv: DIVMTQSPSSLSASVGDRVTLTCTASQSVSNDVVWYQQRPGKAPKLLIYSAFNRYTGVPSRFSGRGYGTDFTLTISSLQPEDVAVYYCQQDYNSPRTFGQGTKLEVKRGGGGSGGGGSGGGGSGGGGSQVQLVQSGAEVKKPGASVKVSCTASGYTFTHYGMNWVRQAPGKGLEWMGWINTYTGEPTYADKFKDRLTFSLETSASTVYMELTSLTSDDTAVYYCARERGDAMDYWGQGTLVTVSS
Relative potency: EC50X/EC50TB-A, KYM-1 cells (recombinant human TNFα [1]): 1.5 ratio EC50X/EC50TB-A
Relative potency: EC50X/EC50TB-A, L929 cells (recombinant human TNFα [1]): 1.32 ratio EC50X/EC50TB-A

B2: TB-A H_F70L/L72R (scFv)
scFv: DIVMTQSPSSLSASVGDRVTLTCTASQSVSNDVVWYQQRPGKAPKLLIYSAFNRYTGVPSRFSGRGYGTDFTLTISSLQPEDVAVYYCQQDYNSPRTFGQGTKLEVKRGGGGSGGGGSGGGGSGGGGSQVQLVQSGAEVKKPGASVKVSCTASGYTFTHYGMNWVRQAPGKGLEWMGWINTYTGEPTYADKFKDRFTLSRETSASTVYMELTSLTSDDTAVYYCARERGDAMDYWGQGTLVTVSS
notes: also called TB-A H70/72
binding result (recombinant human TNFα [2]): binds

B3: TB-A H_F68V/F70L (scFv)
scFv: DIVMTQSPSSLSASVGDRVTLTCTASQSVSNDVVWYQQRPGKAPKLLIYSAFNRYTGVPSRFSGRGYGTDFTLTISSLQPEDVAVYYCQQDYNSPRTFGQGTKLEVKRGGGGSGGGGSGGGGSGGGGSQVQLVQSGAEVKKPGASVKVSCTASGYTFTHYGMNWVRQAPGKGLEWMGWINTYTGEPTYADKFKDRVTLSLETSASTVYMELTSLTSDDTAVYYCARERGDAMDYWGQGTLVTVSS
Relative potency: EC50X/EC50TB-A, L929 cells (recombinant human TNFα [1]): 1.28 ratio EC50X/EC50TB-A

B4: TB-A H_F70L (scFv)
scFv: DIVMTQSPSSLSASVGDRVTLTCTASQSVSNDVVWYQQRPGKAPKLLIYSAFNRYTGVPSRFSGRGYGTDFTLTISSLQPEDVAVYYCQQDYNSPRTFGQGTKLEVKRGGGGSGGGGSGGGGSGGGGSQVQLVQSGAEVKKPGASVKVSCTASGYTFTHYGMNWVRQAPGKGLEWMGWINTYTGEPTYADKFKDRFTLSLETSASTVYMELTSLTSDDTAVYYCARERGDAMDYWGQGTLVTVSS
Relative potency: EC50X/EC50TB-A, L929 cells (recombinant human TNFα [1]): 2.7 ratio EC50X/EC50TB-A

B5: TB-A H_K43R/F68I (scFv)
scFv: DIVMTQSPSSLSASVGDRVTLTCTASQSVSNDVVWYQQRPGKAPKLLIYSAFNRYTGVPSRFSGRGYGTDFTLTISSLQPEDVAVYYCQQDYNSPRTFGQGTKLEVKRGGGGSGGGGSGGGGSGGGGSQVQLVQSGAEVKKPGASVKVSCTASGYTFTHYGMNWVRQAPGRGLEWMGWINTYTGEPTYADKFKDRITFSLETSASTVYMELTSLTSDDTAVYYCARERGDAMDYWGQGTLVTVSS
Relative potency: EC50X/EC50TB-A, KYM-1 cells (recombinant human TNFα [1]): 1.5 ratio EC50X/EC50TB-A
Relative potency: EC50X/EC50TB-A, L929 cells (recombinant human TNFα [1]): 1.37 ratio EC50X/EC50TB-A

B6: TB-A H_F68A (scFv)
scFv: DIVMTQSPSSLSASVGDRVTLTCTASQSVSNDVVWYQQRPGKAPKLLIYSAFNRYTGVPSRFSGRGYGTDFTLTISSLQPEDVAVYYCQQDYNSPRTFGQGTKLEVKRGGGGSGGGGSGGGGSGGGGSQVQLVQSGAEVKKPGASVKVSCTASGYTFTHYGMNWVRQAPGKGLEWMGWINTYTGEPTYADKFKDRATFSLETSASTVYMELTSLTSDDTAVYYCARERGDAMDYWGQGTLVTVSS
Relative potency: EC50X/EC50TB-A, L929 cells (recombinant human TNFα [1]): 1.14 ratio EC50X/EC50TB-A

B7: TB-A Linker_G2R H_F68L (scFv)
scFv: DIVMTQSPSSLSASVGDRVTLTCTASQSVSNDVVWYQQRPGKAPKLLIYSAFNRYTGVPSRFSGRGYGTDFTLTISSLQPEDVAVYYCQQDYNSPRTFGQGTKLEVKRGRGGSGGGGSGGGGSGGGGSQVQLVQSGAEVKKPGASVKVSCTASGYTFTHYGMNWVRQAPGKGLEWMGWINTYTGEPTYADKFKDRLTFSLETSASTVYMELTSLTSDDTAVYYCARERGDAMDYWGQGTLVTVSS
Relative potency: EC50X/EC50TB-A, KYM-1 cells (recombinant human TNFα [1]): 1.3 ratio EC50X/EC50TB-A
Relative potency: EC50X/EC50TB-A, L929 cells (recombinant human TNFα [1]): 0.8 ratio EC50X/EC50TB-A

B8: TB-A H_M48L/F68I (scFv)
scFv: DIVMTQSPSSLSASVGDRVTLTCTASQSVSNDVVWYQQRPGKAPKLLIYSAFNRYTGVPSRFSGRGYGTDFTLTISSLQPEDVAVYYCQQDYNSPRTFGQGTKLEVKRGGGGSGGGGSGGGGSGGGGSQVQLVQSGAEVKKPGASVKVSCTASGYTFTHYGMNWVRQAPGKGLEWLGWINTYTGEPTYADKFKDRITFSLETSASTVYMELTSLTSDDTAVYYCARERGDAMDYWGQGTLVTVSS
Relative potency: EC50X/EC50TB-A, KYM-1 cells (recombinant human TNFα [1]): 1.6 ratio EC50X/EC50TB-A
Relative potency: EC50X/EC50TB-A, L929 cells (recombinant human TNFα [1]): 1.1 ratio EC50X/EC50TB-A

B9: TB-B L46 (scFv)
scFv: DIVLTQSPSSLSASVGDRVTLTCTASQSVSNDVVWYQQRPGKAPKLLIYSAFNRYTGVPSRFSGSGSGTEFTLTISSLQPEDVAVYYCQQDYNSPRTFGQGTKLEVKRGGGGSGGGGSGGGGSGGGGSQVQLVQSGAEVKKPGASVKVSCTASGYSFTHYGMNWVRQAPGQGLEWMGWINTYTGEPTYADKFKDRVTLTRDTSIGTVYMELTSLTSDDTAVYYCARERGDAMDYWGQGTLVTVSS
notes: Differs from TB-B only at position 46 of VL (R to L); also called TB-B R46L
Kd (recombinant human TNFα [3]): ~100 nM

— patent US20160185850A1 (ESBATECH AN ALCON BIOMEDICAL RESEARCH UNIT, published 2016)
